Test results as given in patent publication KR20150077887A (dated 2015).

T1: NRS natively expressed in human cells (HeLa cell lysate) (human, UniProt O43776 1-548)
T1 construct: mature; Target of the western blot; also called human 세포에서 원래 발현된 NRS
T1 sequence (looked up): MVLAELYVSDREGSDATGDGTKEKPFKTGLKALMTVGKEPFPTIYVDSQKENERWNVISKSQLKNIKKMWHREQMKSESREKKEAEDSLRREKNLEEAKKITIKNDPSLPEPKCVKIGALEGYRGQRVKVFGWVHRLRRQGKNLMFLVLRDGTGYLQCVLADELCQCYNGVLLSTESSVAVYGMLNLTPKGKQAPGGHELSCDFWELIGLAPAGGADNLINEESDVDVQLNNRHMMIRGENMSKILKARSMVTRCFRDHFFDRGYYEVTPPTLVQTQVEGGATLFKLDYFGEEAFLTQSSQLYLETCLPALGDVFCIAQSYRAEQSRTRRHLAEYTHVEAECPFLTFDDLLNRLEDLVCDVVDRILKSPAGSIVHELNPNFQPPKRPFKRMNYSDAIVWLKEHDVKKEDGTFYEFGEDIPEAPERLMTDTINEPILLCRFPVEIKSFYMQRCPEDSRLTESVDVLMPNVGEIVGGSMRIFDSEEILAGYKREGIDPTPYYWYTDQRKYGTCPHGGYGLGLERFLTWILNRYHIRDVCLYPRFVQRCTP


Molecular target: T1, NRS natively expressed in human cells …
Assay: western blot on HeLa cell lysate with periplasmic scFv (clones from phage panning on NRS), anti-HA-HRP detection

Binder | binding result
SEQ ID NO 70 (scFv, It is probably the same molecule as one of Biocon-N1 to N5) scFv: EVQLLESGGGLVQTGGSLRLSCAASGFTFSDYAMSWVRQAPGKGLEWVSGISYSGGSTYYADSVKGRFTISRDNSKNTLYLQMNSLRAEDTAVYYCAKNSRHFDYWGQGTLVTVSSGGGGSGGGGSGGGGSQSVLTQPPSASGTPGQRVTISCSGSSSNIGSNDVTWYQQLPGTAPKLLIYSNSHRPSGVPDRFSGSKSGTSASLAISGLRSEDEADYYCGAWDDSLNGYVFGGGTKLTVL | binds
SEQ ID NO 42 (scFv, It is probably the same molecule as one of Biocon-N1 to N5) scFv: EVQLLESGGGLVQPGGSLRLSCAASGFTFSNYSMSWVRQAPGKGLEWVSVISPGSGSKYYADSVKGRFTISRDNSKNTLYLQMNSLRAEDTAVYYCARTATIFDYWGQGTLVTVSSGGGGSGGGGSGGGGSQSVLTQPPSASGTPGQRVTISCTGSSSNIGSNYVSWYQQLPGTAPKLLIYADSQRPSGVPDRFSGSKSGTSASLAISGLRSEDEADYYCGTWDDSLSAYVFGGGTKLTVL | binds
